Target: Lys-Nle peptide
Test: SPR; Lys-Nle peptide immobilised via its terminal thiol group on a CM5 chip (1123.9 RU); BMP-2 flown at increasing concentrations in PBS-T at 50 µL/min; regeneration with Gly-HCl pH 1.5; nonfunctionalized reference channel; Langmuir fit (BIAevaluation)

B1: bone morphogenetic protein-2 (BMP-2) (ligand)
chain: QAKHKQRKRLKSSCKRHPLYVDFSDVGWNDWIVAPPGYHAFYCHGECPFPLADHLNSTNHAIVQTLVNSVNSKIPKACCVPTELSAISMLYLDENEKVVLKNYQDMVVEGCGCR
B1 showed a Kd of 36.6 nM.

Source: article PMC9313494
